Results from US20220396632A1 (VERSEAU THERAPEUTICS, published 2022).

Assays:
E47A = target: T1, E47A (C-terminal Lys-biotin); test: alanine-scan ELISA, streptavidin-immobilized biotin peptide [cont.]
T1 construct: alanine-scan peptide; also called Biotin PSGL-1(42-62) E47A peptide; 47E
T1 peptide: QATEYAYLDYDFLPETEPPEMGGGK

Q42A = target: T2, Q42A (C-terminal Lys-biotin); test: as above
T2 construct: alanine-scan peptide; also called Biotin PSGL-1(42-62) Q42A peptide; 42Q
T2 peptide: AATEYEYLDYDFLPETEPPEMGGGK

T44A = target: T3, T44A (C-terminal Lys-biotin); test: as above
T3 construct: alanine-scan peptide; also called Biotin PSGL-1(42-62) T44A peptide; 44T
T3 peptide: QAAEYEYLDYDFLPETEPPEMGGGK

[1] = target: T4, Biotin PSGL-1(42-62) L49A peptide (C-terminal Lys-biotin); test: as above
T4 peptide: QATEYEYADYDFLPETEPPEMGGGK

M62A = target: T5, M62A (C-terminal Lys-biotin); test: as above
T5 construct: alanine-scan peptide; also called Biotin PSGL-1(42-62) M62A peptide; 62M
T5 peptide: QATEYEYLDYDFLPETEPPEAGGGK

[2] = target: T6, Biotin PSGL-1(42-62) D50A peptide (C-terminal Lys-biotin); test: as above
T6 peptide: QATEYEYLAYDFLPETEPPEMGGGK

Y48A = target: T7, Y48A (C-terminal Lys-biotin); test: as above
T7 construct: alanine-scan peptide; also called Biotin PSGL-1(42-62) Y48A peptide; 48Y
T7 peptide: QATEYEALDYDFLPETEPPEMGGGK

[3] = target: T8, Biotin PSGL-1(42-62) E45A peptide (C-terminal Lys-biotin); test: as above
T8 peptide: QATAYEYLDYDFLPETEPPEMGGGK

[4] = target: T9, Biotin PSGL-1(42-62) E56A peptide (C-terminal Lys-biotin); test: as above
T9 peptide: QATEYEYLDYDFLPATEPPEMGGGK

E61A = target: T10, E61A (C-terminal Lys-biotin); test: as above
T10 construct: alanine-scan peptide; also called Biotin PSGL-1(42-62) E61A peptide; 61E
T10 peptide: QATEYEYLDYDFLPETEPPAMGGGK

E58A = target: T11, E58A (C-terminal Lys-biotin); test: as above
T11 construct: alanine-scan peptide; also called Biotin PSGL-1(42-62) E58A peptide; 58E
T11 peptide: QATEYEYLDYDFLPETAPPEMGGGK

T57A = target: T12, T57A (C-terminal Lys-biotin); test: as above
T12 construct: alanine-scan peptide; also called Biotin PSGL-1(42-62) T57A peptide; 57T
T12 peptide: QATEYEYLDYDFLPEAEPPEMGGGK

[5] = target: T13, Biotin PSGL-1(42-62) Y46A peptide (C-terminal Lys-biotin); test: as above
T13 peptide: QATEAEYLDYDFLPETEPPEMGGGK

[6] = target: T14, Biotin PSGL-1(42-62) F53A peptide (C-terminal Lys-biotin); test: as above
T14 peptide: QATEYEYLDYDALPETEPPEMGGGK

P59A = target: T15, P59A (C-terminal Lys-biotin); test: as above
T15 construct: alanine-scan peptide; also called Biotin PSGL-1(42-62) P59A peptide; 59P
T15 peptide: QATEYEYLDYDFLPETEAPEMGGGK

P60A = target: T16, P60A (C-terminal Lys-biotin); test: as above
T16 construct: alanine-scan peptide; also called Biotin PSGL-1(42-62) P60A peptide; 60P
T16 peptide: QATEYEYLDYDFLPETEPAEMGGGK

[7] = target: T17, PSGL-1 endogenously expressed on HL-60 cells (UniProt Q14242 42-412); test: flow cytometry on HL-60 cells; against parent 20I15
T17 construct: whole, on cells
T17 sequence (looked up): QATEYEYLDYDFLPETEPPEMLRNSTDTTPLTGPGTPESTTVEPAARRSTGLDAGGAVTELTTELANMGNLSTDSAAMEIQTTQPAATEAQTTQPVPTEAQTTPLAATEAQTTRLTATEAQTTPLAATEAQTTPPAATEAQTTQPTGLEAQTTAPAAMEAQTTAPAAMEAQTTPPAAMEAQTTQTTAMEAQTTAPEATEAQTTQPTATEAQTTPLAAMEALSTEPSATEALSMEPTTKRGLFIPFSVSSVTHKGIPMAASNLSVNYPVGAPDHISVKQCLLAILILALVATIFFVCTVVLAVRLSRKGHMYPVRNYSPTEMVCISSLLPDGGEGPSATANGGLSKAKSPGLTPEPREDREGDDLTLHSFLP
Procedure: A typical flow cytometry assay was performed by resuspending HL-60 cells in FACS buffer (5% FBS and 0.05% Sodium Azide in PBS, pH 7.2) on ice, pelleting cells by centrifugation at 500×g for 3 min, washing cells with FACS buffer, and then blocking Fc receptors on the cells with Fc block (human TruStain FcX™, BioLegend Cat. #422302) on ice for 10 min. After washing, 50,000 cells/50 ul in FACS buffer was added to each well of a 96-well round bottomed plate (Costar, Cat. #3797), and 50 ul of serially diluted (0.06 nM-1.0 uM) test or isotype control antibody was added into duplicate wells. The plate was covered and incubated on ice for 1 h. After washing, Phycoerythrin (PE) conjugated anti-human IgG secondary antibody (Abcam; Cat. #ab99825) was added to each well and the plate incubated in the dark on ice for 30 min. After washing, the cells were fixed (1% paraformaldhyde).

B1: 9F9 (antibody, V domains shown)
VH: EVQLVETGGGLVQPKGSLKLSCAASGFTFNTNAMNWVRQAPGKGLEWVARIRSKSNNYATYYADSVKDRFTISRDDTQSMIYLQMNNLKTEDTGMYYCVRGGSYWYFDVWGAGTTVTVSS
VL: DVLMTQTPLSLPVSLGDQASISCRSSQSIVNSNGNTYLEWYLQKPGQSPKLLIYKVSNRFSGVPDRFSGSGSGTDFTLKISRVEAEDLGVYYCFQGSHVPWTFGGGTKLEIK
notes: Control anti-PSGL-1 mAb, recombinant; only variable domains given; also called 9F6
binding result (E47A): binds | binding result (Q42A): binds | binding result (T44A): binds | binding result [1]: binds | binding result (M62A): binds | binding result [2]: binds | binding result (Y48A): binds | binding result [3]: binds | binding result [4]: binds | binding result (E61A): binds | binding result (E58A): binds | binding result (T57A): binds | binding result [5]: binds | binding result [6]: binds | binding result (P59A): binds | binding result (P60A): binds

B2: 20I15 (antibody, V domains shown)
VH: EVKLVESGGGLVQPGGSLSLSCAASGFTFTDYYMSWVRQPPGKALEWLGFIRNKANGYTTEYSASVKGRFTISRDNSQSILYLQMNALRAEDSATYYCARTYLRRGYFDVWGTGTTVTVSS
VL: DIVLTQSPASLAVSLGQRATISCRASKSVSTSGYSYMHWFQQKPGQPPKLLIYLASNLESGVPARFSGSGSGTDFTLNIHPVEEEDAATYYCQHSRELPLTFGAGTKLELK
notes: From mouse immunisation; only variable domains given; also called 20115
HL-60 EC50 (normalized) [7]: 1 fold
